Here are results for one molecule from patent US20250049939A1 (TUBULIS, published 2025).

In assay [1] the target is T1, human wildtype FLT3 expressed on Ba/F3 cells (human, UniProt P36888 27-993).
T1 construct: also called hFLT3 wt; Ba/F3-FLT3
T1 sequence: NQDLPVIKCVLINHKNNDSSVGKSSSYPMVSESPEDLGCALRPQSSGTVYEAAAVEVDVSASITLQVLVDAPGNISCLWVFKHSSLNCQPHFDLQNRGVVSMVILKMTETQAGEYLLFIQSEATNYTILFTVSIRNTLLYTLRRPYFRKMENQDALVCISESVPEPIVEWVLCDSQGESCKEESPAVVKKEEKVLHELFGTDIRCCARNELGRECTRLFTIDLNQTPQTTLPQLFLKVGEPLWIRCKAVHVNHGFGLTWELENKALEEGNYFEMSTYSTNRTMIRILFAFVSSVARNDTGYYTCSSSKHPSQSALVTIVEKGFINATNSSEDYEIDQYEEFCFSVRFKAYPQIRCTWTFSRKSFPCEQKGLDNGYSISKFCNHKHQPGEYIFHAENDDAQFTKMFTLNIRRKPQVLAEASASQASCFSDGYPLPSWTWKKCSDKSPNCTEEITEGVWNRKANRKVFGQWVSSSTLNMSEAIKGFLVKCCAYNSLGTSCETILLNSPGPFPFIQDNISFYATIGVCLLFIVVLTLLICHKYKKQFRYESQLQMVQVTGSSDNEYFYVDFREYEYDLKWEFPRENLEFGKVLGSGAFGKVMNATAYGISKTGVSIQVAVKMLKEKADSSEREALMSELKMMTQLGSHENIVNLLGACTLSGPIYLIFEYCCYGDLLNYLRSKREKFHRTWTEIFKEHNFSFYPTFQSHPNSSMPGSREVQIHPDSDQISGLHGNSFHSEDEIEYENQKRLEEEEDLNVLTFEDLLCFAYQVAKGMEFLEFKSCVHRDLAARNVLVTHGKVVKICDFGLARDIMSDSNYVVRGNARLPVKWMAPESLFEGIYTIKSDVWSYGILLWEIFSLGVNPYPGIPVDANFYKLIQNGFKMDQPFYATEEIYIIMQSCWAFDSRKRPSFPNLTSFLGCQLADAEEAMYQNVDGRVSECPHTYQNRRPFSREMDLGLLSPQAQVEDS
Description: flow cytometry, cell surface binding to Ba/F3 cells expressing human FLT3 (results of FIG. 14 summarized). On the technique in general: In flow cytometry, cells or beads pass a laser one at a time.

A further assay deals with T2, CSF1R on Ba/F3 cells (UniProt P07333 20-972, limits assumed).
T2 construct: whole, on cells
T2 sequence (P07333 20-972 limits assumed): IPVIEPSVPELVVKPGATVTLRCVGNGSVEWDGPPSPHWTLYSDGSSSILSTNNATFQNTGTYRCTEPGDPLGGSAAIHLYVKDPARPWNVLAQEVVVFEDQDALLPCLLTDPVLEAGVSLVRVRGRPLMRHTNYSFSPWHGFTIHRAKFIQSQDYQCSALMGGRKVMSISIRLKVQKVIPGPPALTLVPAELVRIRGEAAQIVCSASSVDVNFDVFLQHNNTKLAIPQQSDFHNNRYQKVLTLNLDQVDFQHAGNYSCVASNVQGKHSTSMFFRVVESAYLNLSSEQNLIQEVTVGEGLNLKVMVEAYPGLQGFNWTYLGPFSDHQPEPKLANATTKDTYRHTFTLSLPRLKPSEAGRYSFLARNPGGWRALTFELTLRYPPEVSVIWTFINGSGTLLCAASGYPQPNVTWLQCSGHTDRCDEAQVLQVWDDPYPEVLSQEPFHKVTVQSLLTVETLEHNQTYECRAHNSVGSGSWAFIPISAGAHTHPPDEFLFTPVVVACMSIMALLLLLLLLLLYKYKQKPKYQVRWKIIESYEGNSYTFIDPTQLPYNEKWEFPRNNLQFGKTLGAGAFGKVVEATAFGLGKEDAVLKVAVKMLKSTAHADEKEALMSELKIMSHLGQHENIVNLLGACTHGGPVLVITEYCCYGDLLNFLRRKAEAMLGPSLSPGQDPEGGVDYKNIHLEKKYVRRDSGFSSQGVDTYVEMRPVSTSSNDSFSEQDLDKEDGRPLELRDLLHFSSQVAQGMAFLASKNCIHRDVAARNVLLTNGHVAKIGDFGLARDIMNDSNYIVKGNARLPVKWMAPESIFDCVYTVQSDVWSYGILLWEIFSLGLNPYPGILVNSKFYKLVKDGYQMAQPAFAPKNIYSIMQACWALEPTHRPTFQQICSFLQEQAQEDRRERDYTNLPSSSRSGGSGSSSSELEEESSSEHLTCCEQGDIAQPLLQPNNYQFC
Description: flow cytometry, cell surface binding to Ba/F3 pMIY cells expressing CSF-1R, MFI ratio normalized to IgG1, mean ± s.d. of n=3.

The target of a further assay is T3, c-KIT on Ba/F3 cells (UniProt P10721 26-976, limits assumed).
T3 construct: whole, on cells
T3 sequence (P10721 26-976 limits assumed): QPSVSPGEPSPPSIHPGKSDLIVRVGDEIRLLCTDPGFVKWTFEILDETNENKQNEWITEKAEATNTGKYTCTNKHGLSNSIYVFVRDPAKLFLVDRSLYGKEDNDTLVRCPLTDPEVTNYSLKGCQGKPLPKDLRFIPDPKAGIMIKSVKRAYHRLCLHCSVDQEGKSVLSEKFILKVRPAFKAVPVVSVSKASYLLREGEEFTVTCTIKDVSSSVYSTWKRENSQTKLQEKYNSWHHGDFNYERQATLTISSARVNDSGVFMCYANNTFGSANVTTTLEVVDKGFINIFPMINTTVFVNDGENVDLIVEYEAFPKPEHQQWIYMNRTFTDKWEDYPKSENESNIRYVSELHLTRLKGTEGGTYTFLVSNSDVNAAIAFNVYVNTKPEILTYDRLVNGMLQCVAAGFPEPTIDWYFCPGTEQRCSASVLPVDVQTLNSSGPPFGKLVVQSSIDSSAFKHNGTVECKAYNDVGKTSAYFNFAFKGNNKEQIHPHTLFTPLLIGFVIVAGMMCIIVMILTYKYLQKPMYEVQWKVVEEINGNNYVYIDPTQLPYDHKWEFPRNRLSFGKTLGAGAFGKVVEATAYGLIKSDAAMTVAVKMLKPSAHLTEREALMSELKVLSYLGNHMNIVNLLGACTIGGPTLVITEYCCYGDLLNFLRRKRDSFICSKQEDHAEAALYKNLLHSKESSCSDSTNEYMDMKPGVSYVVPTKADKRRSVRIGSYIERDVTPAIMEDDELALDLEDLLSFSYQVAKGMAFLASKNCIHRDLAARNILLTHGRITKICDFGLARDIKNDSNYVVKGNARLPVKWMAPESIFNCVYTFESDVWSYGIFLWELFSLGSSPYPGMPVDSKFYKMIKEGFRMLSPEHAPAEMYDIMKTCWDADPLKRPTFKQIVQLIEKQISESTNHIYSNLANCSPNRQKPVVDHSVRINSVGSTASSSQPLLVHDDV
The assay is described as follows: flow cytometry, cell surface binding to Ba/F3 pMIY cells expressing c-KIT, MFI ratio normalized to IgG1, mean ± s.d. of n=3.

For assay [2], the target named is T4, murine FLT3 expressed on Ba/F3 cells (mouse, UniProt Q00342 28-1000).
T4 construct: whole, on cells; also called mFLT3 wt; mFLT3
T4 sequence (looked up): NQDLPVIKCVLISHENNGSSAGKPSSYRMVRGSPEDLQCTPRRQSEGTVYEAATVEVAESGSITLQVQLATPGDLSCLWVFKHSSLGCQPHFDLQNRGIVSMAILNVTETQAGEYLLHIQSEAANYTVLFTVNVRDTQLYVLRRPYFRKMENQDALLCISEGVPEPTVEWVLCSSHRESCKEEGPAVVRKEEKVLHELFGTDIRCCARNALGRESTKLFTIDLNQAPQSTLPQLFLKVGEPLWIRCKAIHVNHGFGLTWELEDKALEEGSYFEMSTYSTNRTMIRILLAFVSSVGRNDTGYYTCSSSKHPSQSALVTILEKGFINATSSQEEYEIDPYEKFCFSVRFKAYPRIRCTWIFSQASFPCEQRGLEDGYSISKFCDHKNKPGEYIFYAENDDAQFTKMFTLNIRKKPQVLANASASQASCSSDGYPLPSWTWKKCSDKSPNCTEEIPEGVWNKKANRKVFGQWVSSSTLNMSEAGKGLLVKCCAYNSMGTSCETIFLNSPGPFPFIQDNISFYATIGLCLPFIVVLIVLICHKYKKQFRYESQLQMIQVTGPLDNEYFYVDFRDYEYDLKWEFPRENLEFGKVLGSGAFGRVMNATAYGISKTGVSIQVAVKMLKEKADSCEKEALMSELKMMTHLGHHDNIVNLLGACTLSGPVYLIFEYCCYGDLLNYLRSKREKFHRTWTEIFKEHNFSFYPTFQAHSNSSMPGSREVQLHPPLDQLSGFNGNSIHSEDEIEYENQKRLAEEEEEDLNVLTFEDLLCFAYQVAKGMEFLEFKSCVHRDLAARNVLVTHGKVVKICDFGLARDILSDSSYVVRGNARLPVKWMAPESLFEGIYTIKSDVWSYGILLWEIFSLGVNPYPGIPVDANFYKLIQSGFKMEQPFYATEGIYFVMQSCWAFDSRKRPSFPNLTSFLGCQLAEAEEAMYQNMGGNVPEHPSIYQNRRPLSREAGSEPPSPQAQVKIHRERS
Description: flow cytometry, cell surface binding to Ba/F3 pMIY cells expressing mFLT3wt, MFI ratio normalized to IgG1, mean ± s.d. of n=3.

A further assay addresses T5, PDGFRα on Ba/F3 cells (UniProt P16234 24-1089, limits assumed).
T5 construct: whole, on cells
Description: flow cytometry, cell surface binding to Ba/F3 pMIY cells expressing PDGFRα, MFI ratio normalized to IgG1, mean ± s.d. of n=3.

T5 sequence (P16234 24-1089 limits assumed): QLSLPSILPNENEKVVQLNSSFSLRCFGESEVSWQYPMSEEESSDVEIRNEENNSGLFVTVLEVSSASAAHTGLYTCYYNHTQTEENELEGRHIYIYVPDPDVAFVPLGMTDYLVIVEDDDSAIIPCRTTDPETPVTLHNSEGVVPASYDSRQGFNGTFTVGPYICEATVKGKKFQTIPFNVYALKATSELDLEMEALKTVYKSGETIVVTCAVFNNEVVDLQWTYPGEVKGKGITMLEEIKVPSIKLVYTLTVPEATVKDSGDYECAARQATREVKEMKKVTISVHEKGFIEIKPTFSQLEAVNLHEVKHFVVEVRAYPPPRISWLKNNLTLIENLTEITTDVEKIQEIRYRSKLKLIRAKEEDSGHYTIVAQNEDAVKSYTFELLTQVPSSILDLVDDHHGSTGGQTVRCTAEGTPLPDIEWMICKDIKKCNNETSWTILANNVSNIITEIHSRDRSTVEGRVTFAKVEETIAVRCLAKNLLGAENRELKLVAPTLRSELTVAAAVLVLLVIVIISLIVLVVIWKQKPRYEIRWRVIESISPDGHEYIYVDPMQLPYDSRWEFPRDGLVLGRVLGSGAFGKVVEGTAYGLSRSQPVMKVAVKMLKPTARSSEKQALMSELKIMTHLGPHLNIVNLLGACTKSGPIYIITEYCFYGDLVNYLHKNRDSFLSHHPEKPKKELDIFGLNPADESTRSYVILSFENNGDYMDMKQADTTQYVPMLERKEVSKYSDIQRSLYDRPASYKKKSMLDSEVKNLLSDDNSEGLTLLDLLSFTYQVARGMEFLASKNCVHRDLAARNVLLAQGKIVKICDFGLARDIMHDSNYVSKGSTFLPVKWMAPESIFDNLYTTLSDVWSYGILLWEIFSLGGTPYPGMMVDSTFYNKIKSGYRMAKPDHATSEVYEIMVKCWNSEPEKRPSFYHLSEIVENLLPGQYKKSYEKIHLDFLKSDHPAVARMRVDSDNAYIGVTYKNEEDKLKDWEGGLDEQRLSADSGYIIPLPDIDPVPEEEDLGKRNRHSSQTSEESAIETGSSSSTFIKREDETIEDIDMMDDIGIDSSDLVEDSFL

B1: Humanized clone 3 of 20D9 (VH3 + VK1) (antibody, human IgG1, kappa)
heavy: not shown
light: DIQMTQSPSVLSASVGDRVTINCRASQNINKELNWYQQKLGEAPKLLIYNTNNLQSGVPSRFSGSGSGTDYTLTISSLQPEDVATYFCFQHKSWPLTFGSGTKLEIKRTVAAPSVFIFPPSDEQLKSGTASVVCLLNNFYPREAKVQWKVDNALQSGNSQESVTEQDSKDSTYSLSSTLTLSKADYEKHKVYACEVTHQGLSSPVTKSFNRGEC
notes: also called candidate #3; #3 mab
Take B1: the “Binding to human FLT3 (MFI ratio to IgG1 control)” value in assay [1] came out at 95.3. Moreover, the binding result (with CSF1R on Ba/F3 cells; with c-KIT on Ba/F3 cells; in assay [2]; with PDGFRα on Ba/F3 cells) was “no binding” each time.
